These results are taken from article PMC3987992.

What all share (assay): BLI
The target of one experiment is CR9114 Fab (human).
The target of experiment [1] is the same heavy chain paired with four different light chains.
The target in the next experiment is PGT135 Fab (human).
Experiment [2] has as its target a panel of eight affinity-matured monoclonal antibodies against the same HIV-1 gp120 antigen but with different epitopes.
Experiment [3] deals with four VH/VL combinations (the same germline light chain paired with three different heavy chains).

B1: recombinant Protein M TD, residues 74-468 (domain or fragment)
chain: SLSLNDGSYQSEIDLSGGANFREKFRNFANELSEAITNSPKGLDRPVPKTEISGLIKTGDNFITPSFKAGYYDHVASDGSLLSYYQSTEYFNNRVLMPILQTTNGTLMANNRGYDDVFRQVPSFSGWSNTKATTVSTSNNLTYDKWTYFAAKGSPLYDSYPNHFFEDVKTLAIDAKDISALKTTIDSEKPTYLIIRGLSGNGSQLNELQLPESVKKVSLYGDYTGVNVAKQIFANVVELEFYSTSKANSFGFNPLVLGSKTNVIYDLFASKPFTHIDLTQVTLQNSDNSAIDANKLKQAVGDIYNYRRFERQFQGYFAGGYIDKYLVKNVNTNKDSDDDLVYRSLKELNLHLEEAYREGDNTYYRVNENYYPGASIYENERASRDSEFQNEILKR
In the case of B1, the Kd with CR9114 Fab (human) was 1.9 nM; in experiment [1], 1.8 to 2.3 nM; with PGT135 Fab (human), 3.7 nM; in experiment [2], 0.7 to 3.8 nM; in experiment [3], 2.1 to 4.8 nM.
